Numbering of substitutions follows the chain as printed.
How the values were obtained:
human MCP-1 (human) [1] = molecular target: human MCP-1 (human) (UniProt P13500); experiment: cell-based or functional assay
human MCP-1 (human) [2] = molecular target: human MCP-1 (human) (UniProt P13500); experiment: BioVeris (IGEN) solution equilibrium titration
human MCP-1 (human) [3] = molecular target: human MCP-1 (human) (UniProt P13500); experiment: inhibition of 125I-MCP-1 binding to THP-1 cells (CCR2)
human Eotaxin-3 = molecular target: T1, human Eotaxin-3 (human, UniProt Q9Y258 24-94); experiment: Biacore, captured IgG
T1 sequence (looked up): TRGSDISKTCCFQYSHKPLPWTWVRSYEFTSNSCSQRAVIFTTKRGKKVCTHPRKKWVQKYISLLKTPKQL
Experimental: (§1) Specificity of Optimized Antibodies in Biacore Antibody Capture Mode (CNTO). Specificity evaluation was performed with selected IgGs. In Biacore 100 nM human MCP-1, human MCP-2, 3, 4 and human Eotaxin 1, 2 and 3 were added to captured optimized antibodies.

human MCP-4 = molecular target: T2, human MCP-4 (human, UniProt Q99616 24-98); experiment: Biacore, captured IgG
T2 construct: also called CCL13
T2 sequence (Q99616 24-98 limits assumed): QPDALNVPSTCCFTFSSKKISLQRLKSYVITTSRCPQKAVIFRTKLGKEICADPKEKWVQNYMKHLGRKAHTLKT
Experimental: as §1

human MCP-3 = molecular target: T3, human MCP-3 (human, UniProt P80098 24-99); experiment: Biacore, captured IgG
T3 construct: also called CCL7
T3 sequence (P80098 24-99 limits assumed): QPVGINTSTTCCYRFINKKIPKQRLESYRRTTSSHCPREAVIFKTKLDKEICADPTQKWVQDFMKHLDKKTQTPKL
Experimental: as §1

human Eotaxin-2 = molecular target: T4, human Eotaxin-2 (human, UniProt O00175 27-104, limits assumed); experiment: Biacore, captured IgG
T4 sequence (looked up): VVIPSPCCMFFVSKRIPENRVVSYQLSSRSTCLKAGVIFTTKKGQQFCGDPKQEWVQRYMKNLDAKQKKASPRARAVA
Experimental: as §1

human MCP-2 [4] = molecular target: T5, human MCP-2 (human, UniProt P80075 24-99); experiment: Biacore, captured IgG
T5 construct: also called CCL8
T5 sequence (looked up): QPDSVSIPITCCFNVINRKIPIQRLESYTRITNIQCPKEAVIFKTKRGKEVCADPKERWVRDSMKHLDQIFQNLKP
Experimental: as §1

human Eotaxin = molecular target: T6, human Eotaxin (human, UniProt P51671 24-97); experiment: BioVeris solution equilibrium titration
T6 construct: also called Eotaxin-1; Eotaxin 1
T6 sequence (P51671 24-97 limits assumed): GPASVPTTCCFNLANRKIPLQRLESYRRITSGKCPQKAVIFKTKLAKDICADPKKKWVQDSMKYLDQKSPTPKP
Experimental: Solution Equilibrium Titration (SET) Method for KD Determination and Cross-Reactivity Studies Using BioVeris. Affinity determination in solution was basically performed as described in the literature (Friguet et al., 1985). In order to improve the sensitivity and accuracy of the SET method, it was transferred from classical ELISA to ECL based BioVeris technology (Haenel et al., 2005, accepted for publication in Analytical Biochemistry). 1 mg/ml goat-anti-human (Fab)₂ or goat-anti-mouse IgG, Fc fragment specific antibodies (Jackson Immuno Research) were labelled with BV-tag™ NHS-Ester (Bioveris Europe, Witney, Oxfordshire, UK) according to manufacturer's instructions. The experiments were carried out in polypropylene microtiter plates and PBS pH 7.4 with 0.5% BSA and 0.02% Tween 20 as assay buffer. Unlabeled antigen was diluted in 4ⁿ series: For human and cyno MCP-1 a concentration range of 10 pM to 40 nM and for cross-reactivity controls (Eotaxin and MCP-2) a concentration range of 40 pM to 160 nM was chosen. Wells without antigen were used to determine Smax values. After addition of 100 pM Fab or IgG (final concentration in 75 μL final volume), the mixture was incubated for 2 hours at RT. Subsequently a mixture of 25 μl Dynabeads (0.4 mg/ml M-280 Streptavidin, DYNAL, Hamburg), coated with 0.25 μg/ml biotinylated MCP-1 (K69) and BV-tag labeled detection antibody in a final dilution of 1:4000 for anti-human Fab or 1:2000 for anti-mouse IgG were added per well. After incubation for 30 min on an Eppendorf shaker (700 rpm) at RT, electrochemiluminescence signals were detected using a M-384 SERIES® Workstation (Bioveris Europe) Data were evaluated with Origin 5.0 (Microcal) software applying customized fitting models (for Fab: Haenel et al., 2005, accepted for publication in Analytical Biochemistry; for IgG: according to Piehler et al., 1997).
Specificity Testing Using BioVeris. Beside the affinity also the specificity, especially the cross-reactivity to Eotaxin and MCP-2, was analyzed in solution equilibrium titration (SET) using BioVeris. No cross-reactivity to human MCP-2 was detectable for any of the selected 16 Fabs and 15 IgGs tested (one of the 16 selected IgGs was not available). As human MCP-1, human MCP-2 binds mainly to the CCR2 receptor, while human Eotaxin predominantly binds to the CCR3 receptor.

human MCP-1 [5] = molecular target: T7, human MCP-1 (human, UniProt P13500 24-99); experiment: inhibition of 125I-MCP-1 binding to THP-1 cells (CCR2)
T7 construct: mature; also called hMCP-1; CCL2
T7 sequence (P13500 24-99): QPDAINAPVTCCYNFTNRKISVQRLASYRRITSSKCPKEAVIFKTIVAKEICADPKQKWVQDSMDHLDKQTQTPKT

cynomolgus monkey MCP-1 = molecular target: T8, cynomolgus monkey MCP-1 (cynomolgus monkey, UniProt P61274 24-99); experiment: Biacore, Fab
T8 construct: also called cyno MCP-1; cyno CCL-2
T8 sequence (P61274 24-99 limits assumed): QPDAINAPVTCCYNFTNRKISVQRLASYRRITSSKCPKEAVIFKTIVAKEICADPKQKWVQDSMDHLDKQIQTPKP

human MCP-1 [6] = molecular target: T7, human MCP-1; experiment: Biacore, Fab
human MCP-1 [7] = molecular target: T7, human MCP-1; experiment: cell-based or functional assay
human MCP-2 [8] = molecular target: T5, human MCP-2; experiment: Biacore, captured Fab
Experimental: For the specificity analysis of Fabs, surface plasmone resonance was used (Biacore 3000, Uppsala, Sweden) using the capture assay was used. Fabs were captured and the various proteins (MCP-2, -3, -4 and Eotaxin-1, -2 and -3) were used as analytes. CM5 chips (Biacore, Sweden) were coated with 6500-8000 RU anti-F(ab)₂ (Dianova, Affipure F(ab)₂ fragment goat anti-human IgG, F(ab)₂ fragment specific; 10 mM acetate buffer, pH 4.5) on all 4 flow cells, using standard EDC-NHS amine coupling chemistry. The flow cells 2-4 were captured with specific anti-MCP-1 Fabs (20 μl of 500 nM Fab at a flow rate of […], resulted capture density 300-400RU). After capturing of Fabs, the chemokines were injected (20 μl, flow rate 20 μl/min, PBS pH 7.4) at a concentration of 100 nM. Chemokines were stored in small aliquots and only freshly thawed material with maximum 1 freeze thaw cycle was used for the measurements. To avoid a combination of off rates aroused by the off rate of MCP-1, Fab specific interaction and the anti-Fab/Fab interaction, buffer was injected, to determine the dissociation of anti-Fab/Fab interaction. The achieved buffer sensorgram was subtracted from the specific one. The response units were normalized to the amount of capture antibody onto the surface.

human MCP-1 (human), sequence (P13500 24-99): as the sequence (P13500 24-99) above

B1: C775 Fab (Fab, from another filing, V domains shown)
VH: QVQLKQSGAELVRPGASVKLSCKASGYTFTDYYINWVKQRPGQGLEWIARIYPGTGNTYYNENFKGKATLTAEKSSSTAYMQLSSLTSEDSAVYFCARSGSTVVGNYYGMDYWGQGTSVTVSS
VL: SIVMTQTPKFLLVSAGDRVSITCKASQSVSNDVAWYQQKPGQSPKLLIYYASNRYTGVPDRFTGSGYGTDFTFTISTVQAEDLAVYFCQQDYSSPWTFGGGTKLEIKR
Inhibition of Ca2+ Mobilization IC50 (human MCP-1 (human) [1]): 71.5 nM
Kd (human MCP-1 (human) [2]): 65 nM
IC50 (human MCP-1 (human) [3]): 35.6 nM

B2: C775 IgG (antibody, from another filing, V domains shown)
VH: B1 VH
VL: B1 VL
Inhibition of Ca2+ Mobilization IC50 (human MCP-1 (human) [1]): 62.3 nM
IC50 (human MCP-1 (human) [3]): 25.6 nM

B3: MOR03747 IgG1 (antibody, V domains shown)
VH: QVQLVESGGGLVQPGGSLRLSCAASGFTFRSYGMSWVRQAPGKGLEWVSNIRSDGSYTYYADSVKGRFTISRDNSKNTLYLQMNSLRAEDTAVYYCARFEFTPWTYFDFWGQGTLVTVSS
VL: DIELTQPPSVSVAPGQTARISCSGDNLGKKYVYWYQQKPGQAPVLVIYDDDNRPSGIPERFSGSNSGNTATLTISGTQAEDEADYYCQSYDRFSSTGFGGGTKLTVL
notes: Human IgG1 lambda
binding result (human Eotaxin-3): no binding (tested: 100 nM)
binding result (human MCP-4): no binding (tested: 100 nM)
binding result (human MCP-3): no binding (tested: 100 nM)
binding result (human Eotaxin-2): no binding (tested: 100 nM)
binding result (human MCP-2 [4]): no binding (tested: 100 nM)
binding result (human Eotaxin): no binding (tested: 40 pM to 160 nM)

B4: MOR03548 Fab (Fab, V domains shown)
VH: B3 VH
VL: B3 VL with D91T, R92A, F93Q, T96A, G97S
notes: Parental HuCAL GOLD Fab with C-terminal FLAG and 6xHis tags
IC50 (human MCP-1 [5]): 11 nM
Kd (cynomolgus monkey MCP-1): 54 nM
Kd (human MCP-1 [6]): 42 nM
Ca2+ mobilization IC50 (human MCP-1 [7]): 124 nM
binding result (human MCP-2 [8]): no binding (tested: 100 nM)

B5: MOR03744 IgG1 (antibody, V domains shown)
VH: B3 VH
VL: B3 VL with S89T, G97A
notes: Human IgG1 lambda
binding result (human Eotaxin-3): no binding (tested: 100 nM)
binding result (human MCP-4): no binding (tested: 100 nM)
binding result (human MCP-3): no binding (tested: 100 nM)
binding result (human Eotaxin-2): no binding (tested: 100 nM)
binding result (human MCP-2 [4]): no binding (tested: 100 nM)
binding result (human Eotaxin): no binding (tested: 40 pM to 160 nM)

B6: MOR03747 Fab (Fab, V domains shown)
VH: B3 VH
VL: B3 VL
notes: HuCAL Fab with C-terminal FLAG and 6xHis tags
binding result (human Eotaxin): no binding (tested: 40 pM to 160 nM)

B7: MOR03744 Fab (Fab, V domains shown)
VH: B3 VH
VL: B3 VL with S89T, G97A
notes: as for B6
binding result (human Eotaxin): no binding (tested: 40 pM to 160 nM)
